This note sets out measurements from the DeepSol protein solubility set.

A short description of the series: soluble on expression in E. coli; label from the status in PepcDB or PDB records.
“MAKNDFKFISYKDKVKKELDATAERGMTKVLMIIKAAAKSGAPVETGQLRDRIDYQLKAVGGKVVGIVGSPEQYAIYVEFGTGEFAENGSGRKGGWFFEGPDGEWHFTRGQKPQKFLRNAFRQNKEKVIEILGKEYGATFKGG”: the “soluble on expression in E. coli” value is given as “not soluble”.
With “SLNTPFSIDEVSFRDLPGWGQDDPRKLFPAMATILSHLRNAKPYRTGALGITAAELVSLLELAERGQVNSPEQARQFFETNSVPFRISPAQGKSGFVTAFYEPELEVSATPDDVWRYPIYRRPPELVDIDNDNRPDGFDPSYAFGKADEEGISYFPDRRAIDEGCLRGRGLEIAWARSKVDLFFVHVQGAARLVFPDGAIKRITYAAKAGHVFSPIGRLLLDRGELDPKTISMQTIRQWLADHPDEVDGVLWHNRSYIFFREADVAGLDMGPIAAAKVPLVAGRALAVDRLIHTFGLPFFIHAPTLTHLDDGKPFARLMLALDTGSAIVGPARGDIFTGSGFEAGELAGTVRNEADFYILLPRIAAERYRR” the entry was “not soluble”.
As to “MGSDKIHHHHHHMNDYYDLLDRVKILIKLGRYKEALRIIDEVIEDSPDVSFLYYKISILFTCRRFEEAKSTLNTAISIFPGSTVFRIWKMVLALETKDVLSMAQINFNDNSVASSQLNAPFQSMDFNDNYAYTFSKSVRDLIMKLGKSAIYCDLQQLKEKILTERISTETINGLYTDIMDYRNRDIVELSSYGRAFYFYSIGRIGDSFIEISSLPDHEVFKAFILGKYSDFLKQTYEIADPYTRAVRFHILRLRELSLKEIETASYIGMDELVMSKRIIEFNGSSLSTQVVVNKVPESHL”, the “soluble on expression in E. coli” value is given as “not soluble”.
With “MPKNKGKGGKNRRRGKNENDFMKRELDLKEEGQEYGQVSKMLGNGRVQVFCFDGKQRVCHIRGKLRKKVWINVGDIILVGLRDYQDDKGDVILKYTPDEARRLKNEGLIPENAKLNENDEQDEGEVEFLDHVGDEGEAGEAKSDSDSSDSDSEKSDEEAGSDKEEESDDDSEEESDEDSDDSDNIREEDLAAGRGFKEDTRRGGNRGGKNKYGKRR” the entry was “soluble”; with “MVTMALDSVTIEVIRNSAIYISEEMGVVLRDTAFSPNIKDRLDHSCAVLAPDGSLVAQAEHIPVHLGSMSVGVVNLVKYIEDLGMDLGVGDVVVTNDPYISGTHLNDLMAIKPVYAGDFHIAYVANKAHHVDVGGLVPGSIGGGAKELREEGIVIEPVKVVEAGSVRWDIVRMLEANVRTPRYFRGDLMAQIASLNVGEARLRELAGRYGGSALVEAWESILGYTERYTREKIGEVAALASGVYRARDYMETSKGELLEIVATLTIDKGRLTVDYTGTSKQVDEPINAVYGVTVAATLFALKSTLDPEMPMNQGFFRIVEIKAPEGTLVNPLKPAPVGGGNVETSQRIADVVFRALAEALPERVPAASCGTMSNVMVGGRGWAFYETNACGSGARPCCDGVDGVHTNMTNTLNTPIEVIEREYPILFNAYELRPDSGGPGMYRGGLGVVRAFTALEDNVTITIFAERGLTRPWGLSGGRPGRSFEAVITRAAGEVERLMSKHTAKLNRGDTIAIYTPGGGGYGDPCKRDRSLIERDLREGRITMESAVKDYCYDS”, “not soluble”; with “GPGSMRLALVGKRTHSLRDNGTPRMHAGDVFICISGSGCIGSIMCTYAQAKKASTGIVMIAGGVGDVPPKDSACATTTLLRSRDGLPWHLHGGGALGPVDGQPVRVRLVFAALFGRDALGGDAAGA”, “soluble”.
With “GPGSMLVDRLQLSCEGTTTAGFTPLLEQFDKGTATQERGAEERAEGNLTPLRVYFRNKRHSLWGHRLWNAAKYMVKRMDSRMIDVRGKTVLELGAGLGVPSLAAFRNGARCVVATDYPDGDLLEILEMNVKANCRADLIDADAAAFLLQEAERLKLAQGYEKSGETVFSEAERQRALSTRCVVEPLLWGKQEHIQKVMSYTGGGGFDIVLLSDILFNHVCNDDLADTIVRVLQRSQHAAAYCVFSHHRAHKQVEDLEFFDKCVARGLRFEQVDEENYPMMFPDDSGPAEIRQPVKTYKIVHYFDDAGMAFQPGNDVFDVVIQGTGMVESIVSAALARSGIRVLHCDGEDDYGGAFKTMTVERMREYITGPLPASLDGAADNRDGRGDHEENHPRCNDGVIAVDRMDELKLHERRSFLLDLLPTHNLSNGETVRQLITSDMARHME” the entry was “not soluble”.
For the sequence “MASEGGNSNGGTSGTGTKSEQDPKEGKRFFNFVFNVNKKITDETEMTQDFMNDLKHYQEFDETVTKCAGYLENVFIPYSSKGSKPEEEAFTRLATALGDFKSFVPQAYTAIFENFSTKMKAAGVSRKCHQALQAHDLRHMKKFHTESYEAFVEQRKKFDESRKKMDQAKADVRDAKTTTAIEKKAICYQLTVDDFDQKTEELIKIIEALPKVKQEYVRDIYLILSKHKQFHADMSKFFAASCVL”, the “soluble on expression in E. coli” value is reported as “not soluble”.
Take “MGSDKIHHHHHHMPAIIKQFFFKSHEMTLSDPRFLSLNQWLNAYFSDEVTPVLISGDASFRRYFRITTPDATFIAADSPPQLVPIAPFIALSNAYAAVGLTVPKVIHADAAQGFMLMSDLGDTQLLSVLNVQNVADYYRQALDLLPQVASVVASQHLDSGLVQPLPLYDEAFVRRELHIFTEWLLGTHLNLSLDESEQQMLSHSFDLLVDYALSQPSVGMHRDFHSRNLMLQAGELCVIDFQDAVVGPVTYDAVSLLRDCYIRWPQPLVADLMQYHYQQALALGFIPALTTLEQYQTWFDLMGLQRHIKAVGIFARLNYRDSKPAYMADIPLTLTYIVDIAMQYPELVPFAHWLTRRVLPAFTASQSLSEVKQ”: the “soluble on expression in E. coli” value is recorded as “not soluble”.
As for “MGDPVEGKGGPQPRGGKKKDADDEKNAWEEGDFIDEKELKGALQLGVLKTADSVALRAGERNGLDMVVEEDVVSQVGALVWDTVAQDWADDLARFVAHAGRQRVNMDDISLLTRRNPDLLRAACELAGVDCPQETSGGTKGKPRKRKKDDVTVAPMLRAAPSAPNSQNAPLLAPIQEEDDENDDDDEITILDDQILHTPQQKSYSKKAKFSEEEAPSSRKRISTSTPKTTAERTLKFPDEITPIRQPNDLQEIVVFNRANLSAIEEEEQQDSFDAFGTTGGNDSSSKTITNTSSLLRQAEEHRSSIVEPTKDRIEKERLDRLVPDDEEFENASVDSFDNFNAEPDPAPAPALAPVPEKRTSVFSKKICSFDFDDDDGDDSFDEPVVVVAEVPKLPVQQQKTPKASGSESKKKPEKRPESSTPSVFSKKNKTIQLDDHDSFDDFDFGI”, the “soluble on expression in E. coli” value is on record as “not soluble”.
With “LLEIDFAELTLEEIIGIGGFGKVYRAFWIGDEVAVKAARHDPDEDISQTIENVRQEAKLFAMLKHPNIIALRGVCLKEPNLCLVMEFARGGPLNRVLSGKRIPPDILVNWAVQIARGMNYLHDEAIVPIIHRDLKSSNILILQKVENGDLSNKILKITDFGLAREWHRTTKMSAAGAYAWMAPEVIRASMFSKGSDVWSYGVLLWELLTGEVPFRGIDGLAVAYGVAMNKLALPIPSTCPEPFAKLMEDCWNPDPHSRPSFTNILDQLTTI” the entry was “soluble”; with “MIFSVDKVRADFPVLSREVNGLPLAYLDSAASAQKPSQVIDAEAEFYRHGYAAVHRGIHTLSAQATEKMENVRKRASLFINARSAEELVFVRGTTEGINLVANSWGNSNVRAGDNIIISQMEHHANIVPWQMLCARVGAELRVIPLNPDGTLQLETLPTLFDEKTRLLAITHVSNVLGTENPLAEMITLAHQHGAKVLVDGAQAVMHHPVDVQALDCDFYVFSGHKLYGPTGIGILYVKEALLQEMPPWEGGGSMIATVSLSEGTTWTKAPWRFEAGTPNTGGIIGLGAALEYVSALGLNNIAEYEQNLMHYALSQLESVPDLTLYGPQNRLGVIAFNLGKHHAYDVGSFLDNYGIAVRTGHHCAMPLMAYYNVPAMCRASLAMYNTHEEVDRLVTGLQRIHRLLG”, “soluble”; with “MFGFLRKSQPVPQPQEATSDTIATQHTSAPLSNDMMLLMAEEIPMLDSNSRVRVYEILEQYDGPTICSQEELPREIREMMDL”, “not soluble”.
With “MGSDKIHHHHHHMYTYKIGISKEEHDNFIKNSSQTNLLQSSSWAKVKDEWENERIGFYQDSKLVASASILIRPLPLGMTMFYIPRGPVMNYQDKDLVNFVLTSLKKFAKRKRALFIKFDPFILLNHHQIDEEAINNPQAQTIIDTLKHLGCEWLGQTSDMGETIQPRFQANIYAEGFSEANLSKKIRQSIRTAKNKGVSIRFGGYELLADFSDLMKKTEDRKSIHLRGIDYYRKLLDNYPQHSFITLASLNLKERLTELESQRKKAQNNLAKFGDNVKPSKIDNTKKEIERLSDEIAFLQEHLSQGKDTVPLSGTLSLEFGKTSENVYAGMDDEFRRYQAAIYTWFATANHAFERGSHWQNMGGIENDLSGGLYNFKSKFKPEIEEFIGEFNLPVSPLYKLANIAYTIRKKRRSKH” the entry was “not soluble”; with “MGSDKIHHHHHHMILVLFYRTTKSHQTHSRHMSVNTTELSIEIIDIVSDRDGARLRDIVEEVDVAKSTAHKHLTTLRDSGFLVKRGEIYQVGLRFLNYGEQARSRWPGYPHIEEAIAALTERTEEECDFVAPDRGRVITIAESYHKWAKFEGTTTDGPSKEYRARTGSYYHMHATASGLAVLSTYSKSRVEDVIERWGLPARTDHTITSREELHAELEQIRERGYAVDDQGYTDGMRSIGKAVHGPEGDVIGALSVSGPTYRVDGMVLEQEVPNALRDVVDELEERLRTTN”, “not soluble”.
Then “MGSDKIHHHHHHMLYVTGITGHSGQWFVKRLISEGYKGRIRCIVLPESDTDFLNKSGLDIDIVSGNLNDQEFLTSTMVGCSTVLHIASIDFSRNVVKAALDNNLDWAILVHTTGRYSKYKSASAEYIEIEEYVLKFRNRMGITVLRPTMIYGSSRDRNMYKLITFLHKIKFFPMFGEGENLMQPVHARDLGNAYYDVIVNRSTTFNKGYNLPGKRPLTYMELVRTVSDTLGRKNVIIKIPLWFSILAARVYNALDKNAIISVEQVLRMQEDKAFDYEDAVRDFSYSPVSFEDGIVEEVNEYLARYNSSRTKQR”, with “not soluble”.
In the case of “SADWARAQSPGAVEEILDRENKRMADSLASKVTRLKSLALDIDRDAEDQNRYLDGMVRAHGVRVSVPCPSTTCCRACSVSFSTGAGGWSNHHFCVILLGFLP”, the “soluble on expression in E. coli” value was “soluble”.
For “MEQSIFRDEKGDCPIVYLAGTLISIGSKPSARYGVCWGAGHAKNEGGPVAGSQTSLRAELTALRRTLEIALAEDITKLIIVFPSKMLGEQLEVWERRPEQHASFENSDILYRVEQLFGEAEARMYFSIDLPTPPDPRAHGYTKALQLARTMLVASRISRNSQITTVAIFAICEKEGKCDALAKYGVYWGQDDHRNEAGLVEDGQTSLRAIMCAVRSALRTAAMHGLKRVHFLTRRIDIINIIKKLAKGEEEDSPGKRNGAIFSDCSRLRSELLDISVKLVQKDVPCVELDRAEAITRGATKKLKKRDNEYERLDRQLLMIESSSSASSPESQPKIENIGDKCPTAVILNLLVRPKFGHSKVSYAVYWGENDEKNERGPVNMRAHAFQADLYAAMCALKKARSKNIRKLHLLTTSEYFKNWMENVQKKNELINDRYDVMMEFQLLLQNFESVTIEVVNSSTQGARRKMYEDAQTFFAGRNESIQKQRSIEDIQLEDPIENNIVEAESVNPESSNQIQVVYVGGACRGRGYANALAVYSVVWPIGEYGCSQGPVTGIVNNIRAKLAAVKSALQQAEQLGIASLIIRTNDQMVHDTLILQNSPIGNIDLMDDIESYKSRMRFVAYQLTTGDYARGNVVADRLAEVIVESIF”, the “soluble on expression in E. coli” value was “soluble”.
Then “MWKTYTRYQAVYKKAQWPLTLYFDGECPLCAREIKVLRARAAADRLLFVDISDDAFDASLLGLTLPQMESSLHARFDDGTWVTGLDATLWSWRAAGLGKWVAPLSWPILRPLFTVLYRLFCRFRPHLAWLPHPDGGRRCSKGSCTVAESVVMKSEASAEKKIS”, with “not soluble”.
